Test results as given in the supplement of paper PMC7877785.
± gives the uncertainty stated by the source.

Experiment: self-splicing fitness, log relative to wild type (ln ratio); higher = more splicing; Tetrahymena group I intron in knt gene, E. coli kanamycin selection, DiMSum; sequences stand for … in CUCUCU…GGAGGGAAAAGUUAUCAGGCAUGCACCUGGUAGCUAGUCUUUAAACCAAUAGAUUGCAUCGGUUUAAAAGGCAAGACCGUCAAAUUGCGGGAAAGGGGUCAACAGCCGUUCAGUACCAAGUCUCAGGGGAAACUUUGAGAUGGCCUUGCAAAGGGUAUGGUAAUAAGCUGACGGACAUGGUCCUAACCACGCAGCCAAGUCCUAAGUCAACAGAUCUUCUGUUGAUAUGGAUGCAGUUCACAGACUAAAUGUCGGUCGGGGAAGAUGUAUUCUUCUCAUAAGAUAUAGUCGGACCUCUCCUUAAUGGGAGCUAGCGGAUGAAGUGAUGCAACACUGGAGCCGCUGGGAACUAAUUUGUAUGCGAAAGUAUAUUGAUUAGUUUUGGAGUACUCGUGGUCG
Outline: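 Fitness was computed with DiMSum as the error-weighted combination of replicate fold changes, kanamycin versus none, each normalised to wild type. The library randomised all eight intron nucleotides of the P1ex region, with the intron placed in the knt kanamycin-resistance gene on pET-22b(+) in E. coli BL21(DE3). Six replicate transformations were grown overnight at 37°C or 30°C on LB agar with or without 25 μg/mL kanamycin, plus 100 μg/mL carbenicillin, 50 μM IPTG and 0.2% rhamnose. Pooled colonies were amplicon-sequenced on an Illumina HiSeq 2500.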

AGCCAGCAAUAUUACGUUCG
self-splicing fitness (ln) (30 °C): -3.46 ± 0.19 | self-splicing fitness (ln) (37 °C): -2.48 ± 0.22

AGCGAGCAAUAUUACGAAAG
self-splicing fitness (ln) (37 °C): -0.117 ± 0.3

AGCGAGCAAUAUUACGAAUA
self-splicing fitness (ln) (30 °C): -3.75 ± 0.46 | self-splicing fitness (ln) (37 °C): -3.32 ± 0.37

AGCGAGCAAUAUUACGACUC
self-splicing fitness (ln) (30 °C): -2.06 ± 0.21 | self-splicing fitness (ln) (37 °C): -1.3 ± 0.24

AGCGAGCAAUAUUACGCUAG
self-splicing fitness (ln) (30 °C): -3.66 ± 0.29 | self-splicing fitness (ln) (37 °C): -2.04 ± 0.27

AGCGAGCAAUAUUACGCUCG
self-splicing fitness (ln) (30 °C): -3.5 ± 0.27 | self-splicing fitness (ln) (37 °C): -2.34 ± 0.49

AGCGAGCAAUAUUACGCUGU
self-splicing fitness (ln) (30 °C): -3.15 ± 0.32 | self-splicing fitness (ln) (37 °C): -2.08 ± 0.22

AGCGAGCAAUAUUACGCUUC
self-splicing fitness (ln) (30 °C): -3.16 ± 0.24 | self-splicing fitness (ln) (37 °C): -2.02 ± 0.28

AGCGAGCAAUAUUACGGACC
self-splicing fitness (ln) (30 °C): -0.957 ± 0.13 | self-splicing fitness (ln) (37 °C): -1.08 ± 0.18

AGCGAGCAAUAUUACGGAGU
self-splicing fitness (ln) (30 °C): -3.99 ± 0.28 | self-splicing fitness (ln) (37 °C): -3.15 ± 0.3

AGCGAGCAAUAUUACGGGAG
self-splicing fitness (ln) (30 °C): -2.82 ± 0.2 | self-splicing fitness (ln) (37 °C): -2 ± 0.29

AGCGAGCAAUAUUACGGUCG
self-splicing fitness (ln) (30 °C): -2.52 ± 0.12 | self-splicing fitness (ln) (37 °C): -1.86 ± 0.13

AGCGAGCAAUAUUACGUGGA
self-splicing fitness (ln) (30 °C): -2.95 ± 0.22 | self-splicing fitness (ln) (37 °C): -2.81 ± 0.16

AGCGAGCAAUAUUACGUUCG
self-splicing fitness (ln) (30 °C): -2.14 ± 0.37 | self-splicing fitness (ln) (37 °C): -2.67 ± 0.38

AGCGAGCAAUAUUACGUUCU
self-splicing fitness (ln) (30 °C): -2.13 ± 0.14 | self-splicing fitness (ln) (37 °C): -0.892 ± 0.14

AGCUAGCAAUAUUACGAAGG
self-splicing fitness (ln) (30 °C): -4.22 ± 0.39 | self-splicing fitness (ln) (37 °C): -1.82 ± 0.26

AGCUAGCAAUAUUACGACGA
self-splicing fitness (ln) (30 °C): -1.17 ± 0.12 | self-splicing fitness (ln) (37 °C): -0.734 ± 0.14

AGCUAGCAAUAUUACGACGU
self-splicing fitness (ln) (30 °C): 0.0109 ± 0.068 | self-splicing fitness (ln) (37 °C): -0.112 ± 0.08

AGCUAGCAAUAUUACGCAAG
self-splicing fitness (ln) (30 °C): -4.11 ± 0.47 | self-splicing fitness (ln) (37 °C): -2.93 ± 0.3

AGCUAGCAAUAUUACGCACA
self-splicing fitness (ln) (30 °C): -1.51 ± 0.21 | self-splicing fitness (ln) (37 °C): -0.817 ± 0.2

AGCUAGCAAUAUUACGCCUC
self-splicing fitness (ln) (30 °C): -2.07 ± 0.34 | self-splicing fitness (ln) (37 °C): -1.46 ± 0.37

AGCUAGCAAUAUUACGCGGA
self-splicing fitness (ln) (30 °C): -2.29 ± 0.14 | self-splicing fitness (ln) (37 °C): -2.71 ± 0.18

AGCUAGCAAUAUUACGCGUG
self-splicing fitness (ln) (30 °C): -1.6 ± 0.088 | self-splicing fitness (ln) (37 °C): -1.53 ± 0.12

AGCUAGCAAUAUUACGCUUA
self-splicing fitness (ln) (30 °C): -1.8 ± 0.19 | self-splicing fitness (ln) (37 °C): -2.01 ± 0.19

AGCUAGCAAUAUUACGGAAA
self-splicing fitness (ln) (30 °C): -3.11 ± 0.25 | self-splicing fitness (ln) (37 °C): -0.395 ± 0.16

AGCUAGCAAUAUUACGGAAG
self-splicing fitness (ln) (30 °C): -2.35 ± 0.086 | self-splicing fitness (ln) (37 °C): -1.34 ± 0.11

AGCUAGCAAUAUUACGGAUG
self-splicing fitness (ln) (30 °C): -2.3 ± 0.082 | self-splicing fitness (ln) (37 °C): -0.891 ± 0.095

AGCUAGCAAUAUUACGGCAC
self-splicing fitness (ln) (30 °C): -1.75 ± 0.14 | self-splicing fitness (ln) (37 °C): -0.45 ± 0.16

AGCUAGCAAUAUUACGGCGU
self-splicing fitness (ln) (30 °C): 0.111 ± 0.11 | self-splicing fitness (ln) (37 °C): -0.724 ± 0.13

AGCUAGCAAUAUUACGGUGC
self-splicing fitness (ln) (30 °C): -2.43 ± 0.17 | self-splicing fitness (ln) (37 °C): -2.03 ± 0.22

AGCUAGCAAUAUUACGGUUC
self-splicing fitness (ln) (30 °C): -3.44 ± 0.28 | self-splicing fitness (ln) (37 °C): -0.512 ± 0.17

AGCUAGCAAUAUUACGUAAG
self-splicing fitness (ln) (30 °C): -2.91 ± 0.12 | self-splicing fitness (ln) (37 °C): -1.71 ± 0.14

AGCUAGCAAUAUUACGUACC
self-splicing fitness (ln) (30 °C): -0.329 ± 0.19 | self-splicing fitness (ln) (37 °C): -0.483 ± 0.25

AGCUAGCAAUAUUACGUAGA
self-splicing fitness (ln) (30 °C): -4.65 ± 0.32 | self-splicing fitness (ln) (37 °C): -1.15 ± 0.14

AGCUAGCAAUAUUACGUCUA
self-splicing fitness (ln) (30 °C): -1.49 ± 0.11 | self-splicing fitness (ln) (37 °C): -0.745 ± 0.13

AGCUAGCAAUAUUACGUUAG
self-splicing fitness (ln) (30 °C): -3.14 ± 0.22 | self-splicing fitness (ln) (37 °C): -2.56 ± 0.22

AGGAAGCAAUAUUACGAACA
self-splicing fitness (ln) (30 °C): -1.85 ± 0.14 | self-splicing fitness (ln) (37 °C): -0.21 ± 0.2

AGGAAGCAAUAUUACGAAGU
self-splicing fitness (ln) (30 °C): -2.15 ± 0.24 | self-splicing fitness (ln) (37 °C): -1.82 ± 0.33

AGGAAGCAAUAUUACGAGUG
self-splicing fitness (ln) (30 °C): -2.62 ± 0.13 | self-splicing fitness (ln) (37 °C): -1.8 ± 0.14

AGGAAGCAAUAUUACGAUCC
self-splicing fitness (ln) (30 °C): -0.54 ± 0.16 | self-splicing fitness (ln) (37 °C): -0.331 ± 0.17

AGGAAGCAAUAUUACGAUGU
self-splicing fitness (ln) (30 °C): -1.51 ± 0.087 | self-splicing fitness (ln) (37 °C): -0.634 ± 0.1

AGGAAGCAAUAUUACGCGGU
self-splicing fitness (ln) (30 °C): -4.18 ± 0.39 | self-splicing fitness (ln) (37 °C): -1.31 ± 0.2

AGGAAGCAAUAUUACGGAAC
self-splicing fitness (ln) (30 °C): -3.47 ± 0.26 | self-splicing fitness (ln) (37 °C): -2.96 ± 0.31

AGGAAGCAAUAUUACGGAUC
self-splicing fitness (ln) (30 °C): -1.75 ± 0.16 | self-splicing fitness (ln) (37 °C): -1.02 ± 0.22

AGGAAGCAAUAUUACGGAUG
self-splicing fitness (ln) (30 °C): -3.64 ± 0.2 | self-splicing fitness (ln) (37 °C): -2.37 ± 0.22

AGGAAGCAAUAUUACGGCUU
self-splicing fitness (ln) (30 °C): -3.74 ± 0.34 | self-splicing fitness (ln) (37 °C): -1.32 ± 0.17

AGGAAGCAAUAUUACGGUUG
self-splicing fitness (ln) (30 °C): -3.3 ± 0.17 | self-splicing fitness (ln) (37 °C): -2.23 ± 0.16
